Experimental findings from article PMC2133036 (The Journal of Cell Biology, 1998) are described below.

“And” between values parts separate entries of the source, which are not always exact repeats. Equal values may be shown once.

The assay has as its target T1, Vma22p (S. cerevisiae, UniProt P38784 1-181).
T1 sequence (looked up): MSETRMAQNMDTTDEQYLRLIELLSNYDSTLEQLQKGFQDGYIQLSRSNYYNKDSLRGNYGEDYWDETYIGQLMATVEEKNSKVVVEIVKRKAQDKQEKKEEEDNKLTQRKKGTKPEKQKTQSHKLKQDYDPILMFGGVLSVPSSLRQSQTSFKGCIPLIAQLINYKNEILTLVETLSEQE
The assay is described as follows: cross-linking.

B1: Vph1p, the 100-kD integral membrane subunit of the V-ATPase (natural protein, S. cerevisiae, UniProt P32563 1-840, looked up)
chain: MAEKEEAIFRSAEMALVQFYIPQEISRDSAYTLGQLGLVQFRDLNSKVRAFQRTFVNEIRRLDNVERQYRYFYSLLKKHDIKLYEGDTDKYLDGSGELYVPPSGSVIDDYVRNASYLEERLIQMEDATDQIEVQKNDLEQYRFILQSGDEFFLKGDNTDSTSYMDEDMIDANGENIAAAIGASVNYVTGVIARDKVATLEQILWRVLRGNLFFKTVEIEQPVYDVKTREYKHKNAFIVFSHGDLIIKRIRKIAESLDANLYDVDSSNEGRSQQLAKVNKNLSDLYTVLKTTSTTLESELYAIAKELDSWFQDVTREKAIFEILNKSNYDTNRKILIAEGWIPRDELATLQARLGEMIARLGIDVPSIIQVLDTNHTPPTFHRTNKFTAGFQSICDCYGIAQYREINAGLPTIVTFPFMFAIMFGDMGHGFLMTLAALSLVLNEKKINKMKRGEIFDMAFTGRYIILLMGVFSMYTGFLYNDIFSKTMTIFKSGWKWPDHWKKGESITATSVGTYPIGLDWAWHGTENALLFSNSYKMKLSILMGFIHMTYSYFFSLANHLYFNSMIDIIGNFIPGLLFMQGIFGYLSVCIVYKWAVDWVKDGKPAPGLLNMLINMFLSPGTIDDELYPHQAKVQVFLLLMALVCIPWLLLVKPLHFKFTHKKKSHEPLPSTEADASSEDLEAQQLISAMDADDAEEEEVGSGSHGEDFGDIMIHQVIHTIEFCLNCVSHTASYLRLWALSLAHAQLSSVLWTMTIQIAFGFRGFVGVFMTVALFAMWFALTCAVLVLMEGTSAMLHSLRLHWVESMSKFFVGEGLPYEPFAFEYKDMEVAVASASSSASS
In the case of B1, the “half-life of the interaction in cells (pulse-chase, cross-linkable Vph1p)” value was < 5 min and ~5 min.
